The source of these data is patent US20220041674A1 (published 2022).

Non-standard residues stand in square brackets, D forms with d. Nal = naphthylalanine

For assay [1], the target named is human chemokine receptor 4 (CXCR4) (human) (UniProt P61073). Put plainly: competitive radioligand binding on Jurkat cells, [125I]FC131 0.1 nM, 2 h RT.
The target is the same in assay [2]. As to the kind of experiment: competitive radioligand binding on Jurkat cells (400.000 cells/sample), [125I]FC-131.
Assay [3] has the same target. Put plainly: cell-based or functional assay.
The target in assay [4] is T1, murine chemokine receptor 4 (CXCR4) (murine, UniProt P70658 1-359).
T1 construct: whole, on cells; receptor present on whole cells; also called mCXCR4; mouse CXCR4
T1 sequence (P70658 whole entry): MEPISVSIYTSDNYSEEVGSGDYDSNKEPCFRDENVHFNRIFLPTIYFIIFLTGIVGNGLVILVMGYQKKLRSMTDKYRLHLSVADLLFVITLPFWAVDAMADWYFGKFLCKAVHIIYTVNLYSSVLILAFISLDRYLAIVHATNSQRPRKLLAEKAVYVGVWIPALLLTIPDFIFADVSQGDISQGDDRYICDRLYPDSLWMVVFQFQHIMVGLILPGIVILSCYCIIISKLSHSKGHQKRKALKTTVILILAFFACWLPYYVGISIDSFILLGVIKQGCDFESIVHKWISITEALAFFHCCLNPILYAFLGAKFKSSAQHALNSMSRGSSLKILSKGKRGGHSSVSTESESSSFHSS
As to the kind of experiment: competitive radioligand binding on Eµ-Myc1080 mouse B-cell lymphoma cells, [125I]CPCR4.3.

human chemokine receptor 4 (CXCR4) (human), sequence (P61073 whole entry): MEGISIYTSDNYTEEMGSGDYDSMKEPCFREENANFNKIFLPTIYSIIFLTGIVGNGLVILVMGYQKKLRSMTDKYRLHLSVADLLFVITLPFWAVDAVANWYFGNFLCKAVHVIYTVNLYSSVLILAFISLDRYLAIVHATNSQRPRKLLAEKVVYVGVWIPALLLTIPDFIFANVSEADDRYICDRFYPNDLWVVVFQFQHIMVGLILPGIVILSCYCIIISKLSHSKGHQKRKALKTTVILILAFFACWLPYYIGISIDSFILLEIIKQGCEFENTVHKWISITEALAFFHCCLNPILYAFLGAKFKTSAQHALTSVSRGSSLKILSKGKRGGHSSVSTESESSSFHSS

In the case of “^natLu-pentixafor, natLu complex of cyclo(D-Tyr1-D-[NMe]Orn2(AMBS-DOTA)-Arg3-Nal4-Gly5) (peptide)”, the IC50 in assay [1] worked out at 41 nM.
The molecule “cyclo[yorn′([natY]DOTA-rG-(4-amino)benzoyl-)RNaIG ([natY]P4b) (peptide)” displayed an IC50 in assay [2] of 8.7 nM.
Take “cyclo[yorn′([natGa]DOTA-ra-(4-amino)benzoyl-)RNaIG ([natGa]P5b) (peptide)”: the half-maximal inhibitory concentration (IC50) in assay [1] and in assay [2] was 0.4 nM throughout.
Regarding “cyclo[i-yorn′(AMBF3(methyl(1H-1,2,3-triazol-4-yl)-kG-4-amino)benzoyl-)RNaIG] (F4) (peptide)”, the half-inhibitory concentration (IC50) in assay [2] was found to be 3.8 nM.
Turning to “cyclo[i-yorn′([natLu]DOTA-ra-(4-amino)benzoyl-)RNaIG ([natLu]P5) (peptide)”, the specific internalized activity (hCXCR4+ Chem 1 cells, 37 °C, 1.0 nM peptide, 60 min) in assay [3] was 36.7%.
Turning to “cyclo[yorn′([natY]DOTA-kG-(4-amino)benzoyl-)RNaIG ([natY]P3b) (peptide)”, the IC50 in assay [2] was 6.3 nM.
In turn, “cyclo[yorn′([natLu]DOTA-ra-(4-amino)benzoyl-)RNaIG ([natLu]P5b) (peptide)” yielded a specific internalized activity (hCXCR4+ Chem 1 cells, 37 °C, 1.0 nM peptide, 60 min) in assay [3] of 21.2%.
In the case of “cyclo[i-yorn′([natGa]DOTA-dapG-(4-amino)benzoyl-)RNaIG ([natGa]P2) (peptide)”, the IC50 in assay [1] and in assay [2] was 3.6 nM each time.
Take “cyclo[i-yorn′(AMBF3(methyl(1H-1,2,3-triazol-4-yl)-vG-4-amino)benzoyl-)RNaIG] (F2) (peptide)”: the half-inhibitory concentration (IC50) in assay [2] is 65.2 nM.
For “cyclo[yorn′([natGa]DOTA-kG-(4-amino)benzoyl-)RNaIG ([natGa]P3b) (peptide)”, the IC50 in assay [1] and in assay [2] was 8.9 nM each time.
“^natGa-pentixafor, natGa complex of cyclo(D-Tyr1-D-[NMe]Orn2(AMBS-DOTA)-Arg3-Nal4-Gly5) (peptide)”: the IC50 in assay [1] was found to be 24.8 nM.
Regarding “cyclo[i-yorn′([natBi]DOTA-kG-(4-amino)benzoyl-)RNaIG ([natBi]P3) (peptide)”, the IC50 in assay [2] was found to be 38 nM.
Same read-out and setting: for “cyclo[i-yorn′([natY]DOTA-dapG-(4-amino)benzoyl-)RNaIG ([natY]P2) (peptide)” the value was 4.1 nM.
As to “cyclo[i-yorn′([natLu]DOTA-d-(4-amino)benzoyl-)RNaIG ([natLu]P1) (peptide)”, the half-maximal inhibitory concentration (IC50) in assay [1] and in assay [2] was 106 nM throughout.
“cyclo[i-yorn′(AMBF3(methyl(1H-1,2,3-triazol-4-yl)4-amino)benzoyl-)RNaIG] (F1) (peptide)”: the IC50 in assay [2] was 134 nM.
On the same count and under the same terms, for “cyclo[-yorn′(AMBF3(methyl(1H-1,2,3-triazol-4-yl)-rG-4-amino)benzoyl-)RNaIG] (F3b) (peptide)” the value was 2.4 nM.
For “cyclo[yorn′([natGa]DOTA-rG-(4-amino)benzoyl-)RNaIG ([natGa]P4b) (peptide)”, the IC50 in assay [1] and in assay [2] was 9.7 nM each time.
In the case of “cyclo[i-yorn′([natGa]DOTA-kG-(4-amino)benzoyl-)RNaIG ([natGa]P3) (peptide)”, the IC50 in assay [1] and in assay [2] was 2.4 nM in each case.
The molecule “cyclo[i-yorn′([natY]DOTA-kG-(4-amino)benzoyl-)RNaIG ([natY]P3) (peptide)” had a half-inhibitory concentration (IC50) in assay [2] of 2.4 nM.
“cyclo[yorn′([natY]DOTA-ra-(4-amino)benzoyl-)RNaIG ([natY]P5b) (peptide)” registered a half-inhibitory concentration (IC50) in assay [2] of 0.3 nM.
Consider “cyclo[yorn′([natLu]DOTA-kG-(4-amino)benzoyl-)RNaIG ([natLu]P3b) (peptide)”, for which the half-inhibitory concentration (IC50) in assay [1] and in assay [2] was 8 nM each time.
Turning to “cyclo[yorn′([natLu]DOTA-rG-(4-amino)benzoyl-)RNaIG ([natLu]P4b) (peptide)”, the IC50 in assay [1] and in assay [2] was 5.4 nM throughout.
Take “^natLu-pentixather, natLu complex of cyclo(D-3-iodo-Tyr1-D-[NMe]Orn2(AMBS-DOTA)-Arg3-Nal4-Gly5) (peptide)”: the specific internalized activity (hCXCR4+ Chem 1 cells, 37 °C, 1.0 nM peptide, 60 min) in assay [3] came to 3.8%.
In the case of “cyclo[i-yorn′([natLu]DOTA-kG-(4-amino)benzoyl-)RNaIG ([natLu]P3) (peptide)”, the 50% inhibitory concentration (IC50) in assay [1] and in assay [2] was 3.6 nM each time.

B1: FC131, c[yRRNaIG] (R2) (peptide)
peptide: cyclo([dY]RR[Nal]G)
notes: stands under the natLu column heads although it carries no chelator; also called cyclo(Gly-Nal-Arg-Arg-D-Tyr)
For B1, the half-inhibitory concentration (IC50) in assay [4] was determined as 119 nM.
